# In the Immune Epitope Database (IEDB):
# Assays:
# HLA-B*46:01 = test: IEDB peptide-MHC binding, purified MHC/direct/fluorescence; filed as Kd, often an IC50 or EC50 that approximates it; ≥ and ≤ were set here for values at or beyond the usual limits of such assays; conditions: source organism: West Nile virus
# HLA-B*15:01 = test: IEDB peptide-MHC binding, purified MHC/competitive/radioactivity; filed as Kd, often an IC50 or EC50 that approximates it; ≥ and ≤ were set here for values at or beyond the usual limits of such assays
# HLA-A*30:01 = test: as above
# HLA-A*01:01 = test: as above
# HLA-A*30:02 = test: as above
# HLA-A*02:01 = test: IEDB peptide-MHC binding, purified MHC/competitive/fluorescence; ≥ and ≤ were set here for values at or beyond the usual limits of such assays
# HLA-B*08:01 = test: IEDB peptide-MHC binding, purified MHC/competitive/radioactivity; filed as Kd, often an IC50 or EC50 that approximates it; ≥ and ≤ were set here for values at or beyond the usual limits of such assays
# HLA-A*11:01 = test: as above; conditions: source organism: Dengue virus 4 Philippines/H241/1956
# HLA-A*03:01 = test: as above; conditions: source organism: Dengue virus 4 Philippines/H241/1956
# HLA-B*44:03 = test: as above
# HLA-B*44:02 = test: as above
# HLA-A*24:02 [1] = test: IEDB peptide-MHC binding, purified MHC/competitive/fluorescence; ≥ and ≤ were set here for values at or beyond the usual limits of such assays
# HLA-B*07:02 = test: IEDB peptide-MHC binding, purified MHC/competitive/radioactivity; filed as Kd, often an IC50 or EC50 that approximates it; ≥ and ≤ were set here for values at or beyond the usual limits of such assays
# HLA-A*02:06 = test: as above; conditions: source organism: Dengue virus 2 Jamaica/1409/1983
# HLA-A*24:02 [2] = test: as above; conditions: source organism: Dengue virus 2 Jamaica/1409/1983
# [3] = source organism: Vaccinia virus WR
# [4] = source organism: Dengue virus 1 Brazil/97-11/1997
# [5] = source organism: Dengue virus 4 Philippines/H241/1956
# [6] = source organism: Sudan ebolavirus
# [7] = source organism: Zaire ebolavirus
# [8] = source organism: Dengue virus 3 Martinique/1243/1999
# [9] = source organism: Vaccinia virus Copenhagen
# [10] = source organism: Dengue virus 4 Dominica/814669/1981
sequence,measurement,setting,value
LLVAPAYSF,Kd,HLA-B*46:01,≥ 20000 nM
LMCPDECPG,Kd,HLA-B*15:01; [3],899 nM
LSIVSLFPLC,Kd,HLA-A*30:01; [4],801 nM
LSKSEFNTY,Kd,HLA-A*01:01; [4],2740 nM
same,Kd,HLA-A*30:02; [4],11.1 nM
same,Kd,HLA-B*15:01; [4],7.88 nM
MLIGIEILN,IC50,HLA-A*02:01; [3],554 nM
MLKLQKCVM,Kd,HLA-B*08:01; [3],9.25 nM
MSLRSTIIK,Kd,HLA-A*30:01; [3],37.2 nM
MTLMKGASK,Kd,HLA-A*11:01,143 nM
same,Kd,HLA-A*03:01,18 nM
same,Kd,HLA-A*30:01; [5],1520 nM
NEHKSTWHY,Kd,HLA-B*44:03; [4],173 nM
same,Kd,HLA-B*44:02; [4],84.1 nM
NEMVLLTMK,Kd,HLA-B*44:02; [4],865 nM
NEVHTWTEQ,Kd,HLA-B*44:03; [4],6680 nM
NITDKINQI,IC50,HLA-A*02:01; [6],43700 nM
same,IC50,HLA-A*24:02 [1]; [6],5960 nM
PLGVIHNST,IC50,HLA-A*02:01; [7],≥ 120000 nM
QAERTGEPDY,Kd,HLA-A*30:01; [5],6210 nM
QHNAAGIAW,IC50,HLA-A*24:02 [1]; [6],21200 nM
QKEGVFHTMW,Kd,HLA-B*44:03; [8],411 nM
same,Kd,HLA-B*44:02; [8],181 nM
RFEVKKRDG,IC50,HLA-A*02:01; [7],≥ 568000 nM
same,IC50,HLA-A*24:02 [1]; [7],≥ 81100 nM
RKKARSTPF,Kd,HLA-B*08:01; source organism: Dengue virus 2 Jamaica/1409/1983,413 nM
RLKMDKLEL,Kd,HLA-B*08:01; [8],556 nM
RNIARHLAL,Kd,HLA-B*08:01; [3],3.24 nM
RPMFAVGLL,Kd,HLA-B*07:02; [4],5.06 nM
RPQPMEHKY,Kd,HLA-A*30:02; [4],134 nM
RPTPTGTVMD,Kd,HLA-B*07:02; [8],41.5 nM
RRLTSREVLL,Kd,HLA-B*08:01; [4],5480 nM
RSMPGTRRVM,Kd,HLA-B*07:02; [8],91.9 nM
RSQSSTIIV,Kd,HLA-A*30:01; [3],559 nM
RTICTLPYL,Kd,HLA-A*30:01; [3],0.738 nM
RTPQDNQLIY,Kd,HLA-A*01:01; [5],919 nM
same,Kd,HLA-A*30:02; [5],198 nM
RYRMHPMSK,Kd,HLA-A*30:01; [3],0.0676 nM
SARGLCAHI,Kd,HLA-B*15:01; [3],1220 nM
SFEEMYRHI,IC50,HLA-A*24:02 [1]; [7],6110 nM
SFKKNGAIK,Kd,HLA-A*30:01; [4],357 nM
SFRRFVNKL,Kd,HLA-B*08:01; [9],1380 nM
SGTETKITF,IC50,HLA-A*24:02 [1]; [9],11300 nM
SIILEFFLI,Kd,HLA-A*02:06,1.59 nM
same,Kd,HLA-A*24:02 [2],1250 nM
SLIYLCTFM,Kd,HLA-B*15:01; [3],4.45 nM
SLKIMIQSM,Kd,HLA-B*08:01; [3],2.48 nM
SMKYLMLLF,Kd,HLA-B*15:01; [3],3.84 nM
SPMPRHHSI,Kd,HLA-B*08:01; [3],1110 nM
SRRYRCSFA,Kd,HLA-B*08:01; [3],52.3 nM
SSPGPTTEA,IC50,HLA-A*02:01; [6],14600 nM
SSQVKCCHY,Kd,HLA-B*15:01; [3],347 nM
SYGEYQSYS,IC50,HLA-A*24:02 [1]; [7],52300 nM
TEQMAPHHKI,Kd,HLA-B*44:02; [5],41.7 nM
TLGYCMIRW,IC50,HLA-A*24:02 [1]; [3],≥ 105000 nM
TSGKYFSTF,Kd,HLA-B*15:01; [9],85.9 nM
TTIRYQATG,IC50,HLA-A*24:02 [1]; [7],58300 nM
TTLTASLVML,Kd,HLA-A*01:01; [10],1050 nM
VHSQGREAA,IC50,HLA-A*02:01; [7],40400 nM
same,IC50,HLA-A*24:02 [1]; [7],1900 nM
VKVLRPTPKG,Kd,HLA-A*30:01; [5],9230 nM
VKVLRPTPRG,Kd,HLA-A*30:01; [10],6080 nM
VLLDYGLHG,Kd,HLA-B*15:01; [3],≥ 27500 nM
VMKRYSAPSE,Kd,HLA-A*30:01; [10],6330 nM
VPLQWIASA,Kd,HLA-B*07:02; source organism: Dengue virus 3 Sri Lanka/1266/2000,178 nM
VRSETKQKF,IC50,HLA-A*24:02 [1]; source organism: Vaccinia virus,1820 nM
VTAKWLWGFL,Kd,HLA-A*01:01; [4],17700 nM
WQQVPFCSH,Kd,HLA-B*15:01; [4],102 nM
YGANYFLQI,Kd,HLA-B*15:01; [3],1760 nM
YKLFLESGA,IC50,HLA-A*02:01; [7],≥ 209000 nM
YLFIRKNVI,Kd,HLA-B*08:01; [9],0.706 nM
YQVKTETTIL,Kd,HLA-B*15:01; [5],43.1 nM
YVHKAQGTG,IC50,HLA-A*02:01; [6],≥ 236000 nM
